Here are results for 23 molecules from patent US20070020327A1.

Assay [1] deals with HLA-A*0202 (purified HLA class I molecule) (human). Briefly: competition with 125I-labelled standard peptide for purified HLA, gel filtration. (In general: In gel filtration, larger molecules generally elute earlier.)
Assay [2] addresses HLA-A*0201 (human). The assay is described as follows: competition with 125I-labelled standard peptide for purified HLA, gel filtration; ratio = IC50 standard / IC50 test peptide. The note with it: remark: other sources report otherwise.
Assay [3] concerns the target HLA-A*0202 (human). The assay is described as above. The note with it: remark: other sources report otherwise.
Assay [4] concerns the target HLA-A*0203 (human). The description is as above. The note with it: remark: other sources report otherwise.
Assay [5] concerns the target HLA-A*0206 (human). The description is as above. The note with it: remark: other sources report otherwise.
Assay [6] has as its target HLA-A*0201 (human). The assay is described as follows: competitive inhibition of 125I-labelled standard peptide binding to purified HLA.
Assay [7] has as its target HLA-A*0202 (human). The assay is described as above.
The target in assay [8] is HLA-A*0203 (human). The description is as above.
In assay [9] the target is HLA-A*0206 (human). Described as above.
For assay [10], the target named is HLA-A*6802 (human). The assay is described as above.
Assay [11] deals with HLA-A*1101 (human). Briefly: competition with 125I-labeled standard peptide for purified HLA-A*1101, gel filtration; relative binding.
Assay [12] has as its target HLA-A*0206 (purified HLA class I molecule) (human). The assay is described as follows: competition with 125I-labelled standard peptide for purified HLA, gel filtration.
The target of assay [13] is HLA-A*0201 (human). The assay is described as follows: competition with 125I-labelled standard peptide 941.01 for purified HLA-A*0201, gel filtration.
Assay [14] addresses HLA-A*0202 (human). Briefly: competition with 125I-labelled standard peptide 941.01 for purified HLA-A*0202, gel filtration.
Assay [15] has as its target HLA-A*0203 (human). The assay is described as follows: competition with 125I-labelled standard peptide 941.01 for purified HLA-A*0203, gel filtration.
Assay [16] addresses HLA-A*0206 (human). Briefly: competition with 125I-labelled standard peptide 941.01 for purified HLA-A*0206, gel filtration.
The target in assay [17] is HLA-A*6802 (human). Briefly: competition with 125I-labelled standard peptide 1072.34 for purified HLA-A*6802, gel filtration.
For assay [18], the target named is HLA-A*0201 (human). Briefly: competition for purified HLA with 125I-labelled standard peptide 941.01 [..] as competitor, gel filtration. The note with it: scale: ratio.
Assay [19] deals with HLA-A*0202 (human). Described as above. The note with it: scale: ratio.
Assay [20] concerns the target HLA-A*0203 (human). Described as above. The note with it: scale: ratio.
Assay [21] concerns the target HLA-A*0206 (human). The assay is described as above. The note with it: scale: ratio.
For assay [22], the target named is HLA-A*1101 (human). The assay is described as follows: inhibition of 125I-labeled probe peptide binding to purified HLA-A*1101, gel filtration; relative to standard peptide 940.06.
The target of assay [23] is HLA-A*0201 (human). Briefly: inhibition of 125I probe peptide binding to purified HLA, gel filtration; ratio = IC50 standard/IC50 test.
Assay [24] deals with HLA-A*0202 (human). Described as above.
Assay [25] addresses HLA-A*0206 (human). The description is as above.
Assay [26] concerns the target HLA-A*6802 (human). The description is as above.
Assay [27] has as its target HLA-A*1101 (human). The assay is described as follows: competition with a 125I-labelled probe peptide for purified HLA-A*1101, gel filtration; value relative to the standard peptide.
In assay [28] the target is HLA-A*0201 (purified HLA class I molecule) (human). The assay is described as follows: competition with 125I-labelled standard peptide for purified HLA, gel filtration.
Assay [29] concerns the target HLA-A*0201 (human). The assay is described as follows: inhibition of 125I-standard peptide binding to purified HLA, gel filtration.
Assay [30] has as its target HLA-A*0203 (human). The assay is described as above.
Assay [31] concerns the target HLA-A*6802 (human). Described as above.
For assay [32], the target named is HLA-A*0201 (human). The assay is described as follows: competition binding to purified HLA, 125I-labelled standard peptide, gel filtration; ratio = IC50 standard / IC50 test peptide.
In assay [33] the target is HLA-A*0203 (human). The description is as above.
Setting [34] is: remark: other sources report otherwise.

Like-named read-outs stand apart in the source and are kept apart here.

For the molecule LVLAGGFFL (modifications not checked) [PSM peptide … (position 26, 9 amino acids)], the binding affinity ratio (IC50 of standard peptide / IC50 of test peptide) in assay [1] (setting [34]) is 0.003.

Turning to PTQEPALGTT (modifications not checked) [Kallikrein (hK2) peptide …, position 142, 10 amino acids], the binding affinity ratio (ratio to standard peptide) in the assay with HLA-A*0201 (human) [2] amounted to 0.0084; with HLA-A*0202 (human) [3], 0.022; in the assay with HLA-A*0203 (human) [4] it was 0.052; with HLA-A*0206 (human) [5], 0.0037.

On to LVCNGVLQGV (modifications not checked) [Peptide 1418.55, … (PSA.213.V10)], for which the IC50 stood at 10 nM with HLA-A*0201 (human) [6]; 2.9 nM with HLA-A*0202 (human) [7]; 12 nM with HLA-A*0203 (human) [8]; 5.6 nM with HLA-A*0206 (human) [9]; 3.5 nM with HLA-A*6802 (human) [10].

With KGEYFVEMY (modifications not checked) [PAP 322 …], in the assay with HLA-A*1101 (human) [11] (setting [34]), the binding affinity ratio (IC50 of standard peptide / IC50 of test peptide) amounted to 0.0002.

As to MLCAGLWT (modifications not checked) [Kallikrein (hK2) peptide MLCAGLWT (position 196, 8 amino acids)], the results for the binding affinity ratio (IC50 of standard peptide / IC50 of test peptide) in [1] and in [12] were 0.002 and 0.0001, respectively.

Regarding RAVCGGVL (modifications not checked) [RAVCGGVL (PSA, position 43)], the binding affinity ratio (IC50 of standard peptide / IC50 of test peptide) with HLA-A*0201 (human) [13] is -0.0001; in the assay with HLA-A*0202 (human) [14], -0.0001; with HLA-A*0203 (human) [15] it was 0.0003; in the assay with HLA-A*0206 (human) [16], -0.0001; with HLA-A*6802 (human) [17], -0.0001.

Take IALSVGCT (modifications not checked) [IALSVGCT (Kallikrein position 8, 8-mer)]: the binding affinity ratio in the assay with HLA-A*0201 (human) [18] is 0.0001; with HLA-A*0202 (human) [19], -0.0002; with HLA-A*0203 (human) [20], -0.0001; in the assay with HLA-A*0206 (human) [21], -0.0001.

Turning to HLLSNDMCA (modifications not checked) [… (Kallikrein position 177, 9-mer)], the binding affinity ratio with HLA-A*0201 (human) [18] was 0.002; with HLA-A*0203 (human) [20] it was 0.0005; with HLA-A*0206 (human) [21] it was 0.0009.

On to DALFDIESK (modifications not checked) [PSM peptide … (position 710, 9 amino acids)], for which the binding affinity ratio (IC50 of standard peptide / IC50 of test peptide) in the assay with HLA-A*1101 (human) [22] turned out to be 0.0002.

For the molecule ALPEKPAV (modifications not checked) [ALPEKPAV (Kallikrein, position 235)], the binding affinity ratio in the assay with HLA-A*0201 (human) [23] (setting [34]) is 0.0009; with HLA-A*0202 (human) [24] (setting [34]), 0.02; with HLA-A*0206 (human) [25] (setting [34]), 0.0001; in the assay with HLA-A*6802 (human) [26] (setting [34]), -0.0001.

Regarding IALSVGCTGAV (modifications not checked) [… (Kallikrein position 8, 11-mer)], the binding affinity ratio with HLA-A*0201 (human) [18] (setting [34]) was 0.0009; in the assay with HLA-A*0202 (human) [19] (setting [34]), 0.0032; with HLA-A*0203 (human) [20] (setting [34]), 0.027; in the assay with HLA-A*0206 (human) [21] (setting [34]), 0.01.

For the molecule LAGAKGVILY (modifications not checked) [PSM 219 …], in the assay with HLA-A*1101 (human) [11], the binding affinity ratio (IC50 of standard peptide / IC50 of test peptide) was found to be 0.0002.

In the case of RLSEPAKIT (modifications not checked) [… (Kallikrein, position 125)], the binding affinity ratio (IC50 of standard peptide / IC50 of test peptide) with HLA-A*0201 (human) [13] was -0.0001; in the assay with HLA-A*0202 (human) [14], -0.0002; in the assay with HLA-A*0203 (human) [15] it was 0.0009; with HLA-A*0206 (human) [16] it was -0.0001; with HLA-A*6802 (human) [17], -0.0002.

As to ESYKHEQVY (modifications not checked) [PAP peptide … (position 95, 9 amino acids)], in the assay with HLA-A*1101 (human) [27] (setting [34]), the binding affinity ratio (IC50 of standard peptide / IC50 of test peptide) is 0.0002.

Regarding ETYELVEKFY (modifications not checked) [PSM peptide … (position 557, 10 amino acids)], the binding affinity ratio (IC50 of standard peptide / IC50 of test peptide) with HLA-A*1101 (human) [27] came to 0.0002.

Take AAHCLKKNSQV (modifications not checked) [… (Kallikrein, position 63)]: the binding affinity ratio with HLA-A*0201 (human) [23] (setting [34]) worked out at 0.0003; with HLA-A*0202 (human) [24] (setting [34]), 0.0006; with HLA-A*0206 (human) [25] (setting [34]) it was 0.0001.

In the case of NLFEPEDT (modifications not checked) [Kallikrein (hK2) peptide NLFEPEDT (position 79, 8 amino acids)], the binding affinity ratio (IC50 of standard peptide / IC50 of test peptide) in [28] was 0.0002; in assay [12], -0.0001.

As for LLSNDMCA (modifications not checked) [Kallikrein 178 LLSNDMCA], the binding affinity ratio (IC50 standard peptide / IC50 test peptide) (ratio to standard peptide) was 0.0003 with HLA-A*0201 (human) [29], 0.0003 with HLA-A*0203 (human) [30] and -0.0001 with HLA-A*6802 (human) [31].

For the molecule CSPSCPLER (modifications not checked) [PAP peptide … (position 347, 9 amino acids)], the binding affinity ratio (IC50 of standard peptide / IC50 of test peptide) with HLA-A*1101 (human) [22] is 0.0006.

Turning to RAYSEKVT (modifications not checked) [RAYSEKVT (Kallikrein, position 186)], the binding affinity ratio (IC50 of standard peptide / IC50 of test peptide) was -0.0001 with HLA-A*0201 (human) [13]; -0.0001 with HLA-A*0202 (human) [14]; 0.0003 in the assay with HLA-A*0203 (human) [15]; 0.0001 in the assay with HLA-A*0206 (human) [16]; -0.0001 in the assay with HLA-A*6802 (human) [17].

Consider DTCGGDSGGPL (modifications not checked) [… (Kallikrein, position 207, 11 amino acids)], for which the binding affinity ratio with HLA-A*0201 (human) [32] was 0.0001; in the assay with HLA-A*0203 (human) [33], 0.0005.

Take ALPEKPAVYT (modifications not checked) [… (Kallikrein, position 235)]: the binding affinity ratio was 0.0003 with HLA-A*0201 (human) [23], 0.005 with HLA-A*0202 (human) [24], 0.0005 in the assay with HLA-A*0206 (human) [25] and -0.0001 in the assay with HLA-A*6802 (human) [26].

In the case of PTQEPALGTT (modifications not checked) [PSA peptide …, position 138, 10 amino acids], the binding affinity ratio (ratio to standard peptide) amounted to 0.0084 with HLA-A*0201 (human) [2], 0.022 with HLA-A*0202 (human) [3], 0.052 with HLA-A*0203 (human) [4] and 0.0037 in the assay with HLA-A*0206 (human) [5].

What is called IC50 is the concentration that inhibits the measured activity by half.
